Source: patent publication US20230250154A1 (CYTONICS, published 2023)

T1: ADAMTS4 (human, UniProt O75173 213-685, limits assumed)
T1 sequence (looked up): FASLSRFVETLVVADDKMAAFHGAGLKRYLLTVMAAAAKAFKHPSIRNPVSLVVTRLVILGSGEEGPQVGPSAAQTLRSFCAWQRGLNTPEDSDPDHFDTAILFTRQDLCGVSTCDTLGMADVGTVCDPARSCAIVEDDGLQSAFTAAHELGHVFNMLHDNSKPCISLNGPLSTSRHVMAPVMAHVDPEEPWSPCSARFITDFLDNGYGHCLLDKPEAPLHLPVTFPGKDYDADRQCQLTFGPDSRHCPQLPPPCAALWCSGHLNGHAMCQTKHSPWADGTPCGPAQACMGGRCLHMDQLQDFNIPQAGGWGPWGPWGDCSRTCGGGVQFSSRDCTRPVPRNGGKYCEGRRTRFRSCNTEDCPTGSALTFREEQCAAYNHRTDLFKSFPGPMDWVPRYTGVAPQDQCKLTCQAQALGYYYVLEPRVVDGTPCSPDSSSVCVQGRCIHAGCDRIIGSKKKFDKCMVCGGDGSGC

T2: ADAMTS5 (human, UniProt Q9UNA0 262-622, limits assumed)
T2 sequence (looked up): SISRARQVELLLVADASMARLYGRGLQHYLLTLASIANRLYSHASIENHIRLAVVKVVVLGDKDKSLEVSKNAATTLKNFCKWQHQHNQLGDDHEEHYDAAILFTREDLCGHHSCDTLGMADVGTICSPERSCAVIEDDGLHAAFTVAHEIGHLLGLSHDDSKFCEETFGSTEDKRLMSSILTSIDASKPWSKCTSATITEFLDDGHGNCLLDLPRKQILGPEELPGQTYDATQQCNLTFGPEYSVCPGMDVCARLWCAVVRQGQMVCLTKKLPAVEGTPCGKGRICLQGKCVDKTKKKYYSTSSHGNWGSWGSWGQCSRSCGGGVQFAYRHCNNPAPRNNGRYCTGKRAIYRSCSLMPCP

B1: Variant A2M, bait region SEQ ID NO 104 (other)
chain: SVSGKPQYMVLVPSLLHTETTEKGCVLLSYLNETVTVSASLESVRGNRSLFTDLEAENDVLHCVAFAVPKSSSNEEVMFLTVQVKGPTQEFKKRTTVMVKNEDSLVFVQTDKSIYKPGQTVKFRVVSMDENFHPLNELIPLVYIQDPKGNRIAQWQSFQLEGGLKQFSFPLSSEPFQGSYKVVVQKKSGGRTEHPFTVEEFVLPKFEVQVTVPKIITILEEEMNVSVCGLYTYGKPVPGHVTVSICRKYSDASDCHGEDSQAFCEKFSGQLNSHGCFYQQVKTKVFQLKRKEYEMKLHTEAQIQEEGTVVELTGRQSSEITRTITKLSFVKVDSHFRQGIPFFGQVRLVDGKGVPIPNKVIFIRGNEANYYSNATTDEHGLVQFSINTTNVMGTSLTVRVNYKDRSPCYGYQWVSEEHEEAHHTAYLVFSPSKSFVHLEPMSHELPCGHTQTVQAHYILNGGTLLGLKKLSFYYLIMAKGGIVRTGTHGLLVKQEDMKGHFSISIPVKSDIAPVARLLIYAVLPTGDVIGDSAKYDVENCLANKVDLSFSPSQSLPASHAHLRVTAAPQSVCALRAVDQSVLLMKPDAELSASSVYNLLPEKDLTGFPGPLNDQDDEDCINRHNVYINGITYTPVSSTNEKDMYSFLEDMGLKAFTNSKIRKPKMCPQLEQYEMHGPEGLRVGESESEGGGGGSLLGEFEVEGGFAGLPNGKLRKYFPETWIWDLVVVNSAGVAEVGVTVPDTITEWKAGAFCLSEDAGLGISSTASLRAFQPFFVELTMPYSVIRGEAFTLKATVLNYLPKCIRVSVQLEASPAFLAVPVEKEQAPHCICANGRQTVSWAVTPKSLGNVNFTVSAEALESQELCGTEVPSVPEHGRKDTVIKPLLVEPEGLEKETTFNSLLCPSGGEVSEELSLKLPPNVVEESARASVSVLGDILGSAMQNTQNLLQMPYGCGEQNMVLFAPNIYVLDYLNETQQLTPEIKSKAIGYLNTGYQRQLNYKHYDGSYSTFGERYGRNQGNTWLTAFVLKTFAQARAYIFIDEAHITQALIWLSQRQKDNGCFRSSGSLLNNAIKGGVEDEVTLSAYITIALLEIPLTVTHPVVRNALFCLESAWKTAQEGDHGSHVYTKALLAYAFALAGNQDKRKEVLKSLNEEAVKKDNSVHWERPQKPKAPVGHFYEPQAPSAEVEMTSYVLLAYLTAQPAPTSEDLTSATNIVKWITKQQNAQGGFSSTQDTVVALHALSKYGAATFTRTGKAAQVTIQSSGTFSSKFQVDNNNRLLLQQVSLPELPGEYSMKVTGEGCVYLQTSLKYNILPEKEEFPFALGVQTLPQTCDEPKAHTSFQISLSVSYTGSRSASNMAIVDVKMVSGFIPLKPTVKMLERSNHVSRTEVSSNHVLIYLDKVSNQTLSLFFTVLQDVPVRDLKPAIVKVYDYYETDEFAIAEYNAPCSKDLGNADYKDDDDKGASHHHHHH
B2: Variant A2M, bait region SEQ ID NO 103 (other)
chain: SVSGKPQYMVLVPSLLHTETTEKGCVLLSYLNETVTVSASLESVRGNRSLFTDLEAENDVLHCVAFAVPKSSSNEEVMFLTVQVKGPTQEFKKRTTVMVKNEDSLVFVQTDKSIYKPGQTVKFRVVSMDENFHPLNELIPLVYIQDPKGNRIAQWQSFQLEGGLKQFSFPLSSEPFQGSYKVVVQKKSGGRTEHPFTVEEFVLPKFEVQVTVPKIITILEEEMNVSVCGLYTYGKPVPGHVTVSICRKYSDASDCHGEDSQAFCEKFSGQLNSHGCFYQQVKTKVFQLKRKEYEMKLHTEAQIQEEGTVVELTGRQSSEITRTITKLSFVKVDSHFRQGIPFFGQVRLVDGKGVPIPNKVIFIRGNEANYYSNATTDEHGLVQFSINTTNVMGTSLTVRVNYKDRSPCYGYQWVSEEHEEAHHTAYLVFSPSKSFVHLEPMSHELPCGHTQTVQAHYILNGGTLLGLKKLSFYYLIMAKGGIVRTGTHGLLVKQEDMKGHFSISIPVKSDIAPVARLLIYAVLPTGDVIGDSAKYDVENCLANKVDLSFSPSQSLPASHAHLRVTAAPQSVCALRAVDQSVLLMKPDAELSASSVYNLLPEKDLTGFPGPLNDQDDEDCINRHNVYINGITYTPVSSTNEKDMYSFLEDMGLKAFTNSKIRKPKMCPQLEQYEMHGPEGLRVGGARGLEGGFAGLPNGGEEGVEEGKLRKYFPETWIWDLVVVNSAGVAEVGVTVPDTITEWKAGAFCLSEDAGLGISSTASLRAFQPFFVELTMPYSVIRGEAFTLKATVLNYLPKCIRVSVQLEASPAFLAVPVEKEQAPHCICANGRQTVSWAVTPKSLGNVNFTVSAEALESQELCGTEVPSVPEHGRKDTVIKPLLVEPEGLEKETTFNSLLCPSGGEVSEELSLKLPPNVVEESARASVSVLGDILGSAMQNTQNLLQMPYGCGEQNMVLFAPNIYVLDYLNETQQLTPEIKSKAIGYLNTGYQRQLNYKHYDGSYSTFGERYGRNQGNTWLTAFVLKTFAQARAYIFIDEAHITQALIWLSQRQKDNGCFRSSGSLLNNAIKGGVEDEVTLSAYITIALLEIPLTVTHPVVRNALFCLESAWKTAQEGDHGSHVYTKALLAYAFALAGNQDKRKEVLKSLNEEAVKKDNSVHWERPQKPKAPVGHFYEPQAPSAEVEMTSYVLLAYLTAQPAPTSEDLTSATNIVKWITKQQNAQGGFSSTQDTVVALHALSKYGAATFTRTGKAAQVTIQSSGTFSSKFQVDNNNRLLLQQVSLPELPGEYSMKVTGEGCVYLQTSLKYNILPEKEEFPFALGVQTLPQTCDEPKAHTSFQISLSVSYTGSRSASNMAIVDVKMVSGFIPLKPTVKMLERSNHVSRTEVSSNHVLIYLDKVSNQTLSLFFTVLQDVPVRDLKPAIVKVYDYYETDEFAIAEYNAPCSKDLGNADYKDDDDKGASHHHHHH
B3: Variant A2M, bait region SEQ ID NO 105 (other)
chain: SVSGKPQYMVLVPSLLHTETTEKGCVLLSYLNETVTVSASLESVRGNRSLFTDLEAENDVLHCVAFAVPKSSSNEEVMFLTVQVKGPTQEFKKRTTVMVKNEDSLVFVQTDKSIYKPGQTVKFRVVSMDENFHPLNELIPLVYIQDPKGNRIAQWQSFQLEGGLKQFSFPLSSEPFQGSYKVVVQKKSGGRTEHPFTVEEFVLPKFEVQVTVPKIITILEEEMNVSVCGLYTYGKPVPGHVTVSICRKYSDASDCHGEDSQAFCEKFSGQLNSHGCFYQQVKTKVFQLKRKEYEMKLHTEAQIQEEGTVVELTGRQSSEITRTITKLSFVKVDSHFRQGIPFFGQVRLVDGKGVPIPNKVIFIRGNEANYYSNATTDEHGLVQFSINTTNVMGTSLTVRVNYKDRSPCYGYQWVSEEHEEAHHTAYLVFSPSKSFVHLEPMSHELPCGHTQTVQAHYILNGGTLLGLKKLSFYYLIMAKGGIVRTGTHGLLVKQEDMKGHFSISIPVKSDIAPVARLLIYAVLPTGDVIGDSAKYDVENCLANKVDLSFSPSQSLPASHAHLRVTAAPQSVCALRAVDQSVLLMKPDAELSASSVYNLLPEKDLTGFPGPLNDQDDEDCINRHNVYINGITYTPVSSTNEKDMYSFLEDMGLKAFTNSKIRKPKMCPQLEQYEMHGPEGLRVGGFKEGVEGEIEEGGGFKEGVEGKLRKYFPETWIWDLVVVNSAGVAEVGVTVPDTITEWKAGAFCLSEDAGLGISSTASLRAFQPFFVELTMPYSVIRGEAFTLKATVLNYLPKCIRVSVQLEASPAFLAVPVEKEQAPHCICANGRQTVSWAVTPKSLGNVNFTVSAEALESQELCGTEVPSVPEHGRKDTVIKPLLVEPEGLEKETTFNSLLCPSGGEVSEELSLKLPPNVVEESARASVSVLGDILGSAMQNTQNLLQMPYGCGEQNMVLFAPNIYVLDYLNETQQLTPEIKSKAIGYLNTGYQRQLNYKHYDGSYSTFGERYGRNQGNTWLTAFVLKTFAQARAYIFIDEAHITQALIWLSQRQKDNGCFRSSGSLLNNAIKGGVEDEVTLSAYITIALLEIPLTVTHPVVRNALFCLESAWKTAQEGDHGSHVYTKALLAYAFALAGNQDKRKEVLKSLNEEAVKKDNSVHWERPQKPKAPVGHFYEPQAPSAEVEMTSYVLLAYLTAQPAPTSEDLTSATNIVKWITKQQNAQGGFSSTQDTVVALHALSKYGAATFTRTGKAAQVTIQSSGTFSSKFQVDNNNRLLLQQVSLPELPGEYSMKVTGEGCVYLQTSLKYNILPEKEEFPFALGVQTLPQTCDEPKAHTSFQISLSVSYTGSRSASNMAIVDVKMVSGFIPLKPTVKMLERSNHVSRTEVSSNHVLIYLDKVSNQTLSLFFTVLQDVPVRDLKPAIVKVYDYYETDEFAIAEYNAPCSKDLGNADYKDDDDKGASHHHHHH

The binders below were run against T1, ADAMTS4 (assay: cell-based or functional assay).

Row | Binder | Protease Inhibition (% of WT)
1 | B1 | 100 % of WT
2 | B2 | 168 % of WT
3 | B3 | 94 % of WT

These binders were tested against T2, ADAMTS5 (assay: cell-based or functional assay).

Row | Binder | Protease Inhibition (% of WT)
4 | B1 | 99 % of WT
5 | B2 | 309 % of WT
6 | B3 | 115 % of WT

The binders below were run against MMP13 (human, UniProt P45452 104-471, limits assumed) (assay: cell-based or functional assay).

Row | Binder | Protease Inhibition (% of WT)
7 | B1 | 80 % of WT
8 | B2 | 52 % of WT
9 | B3 | 164 % of WT
